The values that follow come from PMC8072984, “Engineering of Saposin C Protein Chimeras for Enhanced Cytotoxicity and Optimized Liposome Binding Capability” (Pharmaceutics, 2021).

By Kd is commonly meant the equilibrium constant for the complex coming apart. For orientation: koff means a measure of how fast the partners let go of each other.

The test concerns the target T1, Human Bcl-xL-ΔTM (native amino acid sequence without the transmembrane domain) (human).
T1 construct: ~24.5 kDa; Unlabeled in the NMR titration; source: cloned into pET21a; not shown: His6, N-terminal, kept
Description: NMR titration; [1H-15N]-SOFAST-HMQC at 298 K, 600 MHz; 15N-labelled chimera at 100 µM mixed with unlabeled Bcl-xL-ΔTM (stock 900 µM, pH 6.8) at chimera:Bcl-xL molar ratios 1:0, 1:0.5, 1:1, 1:2; 10% D2O; slow exchange, the upper limit of KD estimated from the chemical shift difference assuming diffusion-controlled kon. The conditions noted are these: both partners purified.

B1: sapC-PUMA chimera (saposin C linked to the BH3 domain of PUMA) (other)
chain: SDVYCEVCEFLVKEVTKLIDNNKTEKEILDAFDKMCSKLPKSLSEECQEVVDTYGSSILSILLEEVSPELVCSMLHLCSGGGGEEQWAREIGAQLRRMADDLNAQYER
modifications: Three disulfide bonds in the sapC part. Chimera numbering of sapC + 307 = P07602 numbering (S4-G83 = 311-390). Vector residues 1-3 (letters only in Figure 2) and the C-terminal thrombin-site remnant …
For the molecule B1, the Kd is below 49 nM and the koff is below 49 s⁻¹.
